Experiments:
[1] = molecular target: GST-Cdc42 constitutively active (CA/Q61L), preloaded with GTPγS (UniProt P60953); experiment: pull-down; Glutathione-Sepharose beads coated with GST alone or GST-GTPase fusions pre-loaded with GDP (DN) or GTPγS (CA), incubated with lysates of HEK293T cells expressing GFP-CRN7 WT or CRIB mutants; blot with GFP mAb K3-184-2 or anti-N-WASP; ImageJ quantification, input set at 100%
[2] = molecular target: GST-Cdc42 dominant negative (DN/T17N), preloaded with GDP (UniProt P60953); experiment: GST pull-down, western blot quantified with ImageJ; conditions: GST-Cdc42 DN on Glutathione-Sepharose beads pre-loaded with GDP; lysates from HEK293T cells; input set at 100%; 3 independent experiments; parent: est. 60; read off a plot
[3] = molecular target: GST-Cdc42 constitutively active (CA/Q61L), preloaded with GTPγS (UniProt P60953); experiment: GST pull-down, western blot quantified with ImageJ; conditions: GST-Cdc42 CA on Glutathione-Sepharose beads pre-loaded with GTPγS; lysates from HEK293T cells; input set at 100%; 3 independent experiments; parent: est. 19; read off a plot

Chain of GST-Cdc42 constitutively active (CA/Q61L), preloaded with GTPγS (P60953 whole entry Q61L, the tested form may be a part): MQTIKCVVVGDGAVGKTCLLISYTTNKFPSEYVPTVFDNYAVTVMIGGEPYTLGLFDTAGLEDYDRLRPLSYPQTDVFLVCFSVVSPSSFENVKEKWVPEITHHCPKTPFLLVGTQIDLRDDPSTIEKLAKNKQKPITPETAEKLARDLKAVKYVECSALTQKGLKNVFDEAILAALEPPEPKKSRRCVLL
Chain of GST-Cdc42 dominant negative (DN/T17N), preloaded with GDP (P60953 whole entry T17N): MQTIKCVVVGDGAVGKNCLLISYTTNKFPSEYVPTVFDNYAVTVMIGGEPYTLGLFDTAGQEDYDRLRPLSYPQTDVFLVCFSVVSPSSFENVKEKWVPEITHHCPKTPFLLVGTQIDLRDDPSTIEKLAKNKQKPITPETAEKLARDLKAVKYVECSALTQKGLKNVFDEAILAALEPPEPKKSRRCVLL
Chain of GFP-CRN7 WT (human Coronin7, full length, GFP on its N-terminus) (from UniProt P57737) NT-CRIB S>A; P>A (… > …); residue numbers not printed (P57737 whole entry, change not shown): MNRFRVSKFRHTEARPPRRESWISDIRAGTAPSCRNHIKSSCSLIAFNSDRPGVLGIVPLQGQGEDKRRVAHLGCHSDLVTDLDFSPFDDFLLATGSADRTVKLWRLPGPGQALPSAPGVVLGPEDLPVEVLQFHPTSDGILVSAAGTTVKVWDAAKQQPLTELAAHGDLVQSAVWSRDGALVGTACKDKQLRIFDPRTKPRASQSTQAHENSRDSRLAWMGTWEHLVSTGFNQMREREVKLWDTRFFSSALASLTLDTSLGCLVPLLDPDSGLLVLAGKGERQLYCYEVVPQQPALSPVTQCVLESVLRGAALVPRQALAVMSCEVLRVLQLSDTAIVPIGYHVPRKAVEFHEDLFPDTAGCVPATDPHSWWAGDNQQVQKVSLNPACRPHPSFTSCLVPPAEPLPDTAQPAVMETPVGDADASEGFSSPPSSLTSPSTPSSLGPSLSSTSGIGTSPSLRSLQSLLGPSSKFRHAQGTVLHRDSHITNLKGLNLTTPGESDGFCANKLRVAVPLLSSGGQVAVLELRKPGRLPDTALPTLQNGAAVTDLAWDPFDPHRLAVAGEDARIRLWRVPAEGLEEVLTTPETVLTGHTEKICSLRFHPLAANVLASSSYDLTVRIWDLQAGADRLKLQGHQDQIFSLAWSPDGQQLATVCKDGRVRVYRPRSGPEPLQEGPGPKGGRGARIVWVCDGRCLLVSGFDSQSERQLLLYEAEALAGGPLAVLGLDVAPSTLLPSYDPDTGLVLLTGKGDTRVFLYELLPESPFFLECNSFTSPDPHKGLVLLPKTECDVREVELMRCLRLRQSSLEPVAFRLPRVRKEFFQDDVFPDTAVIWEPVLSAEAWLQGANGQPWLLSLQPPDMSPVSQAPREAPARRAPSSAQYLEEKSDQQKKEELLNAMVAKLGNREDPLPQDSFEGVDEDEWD
Chain of GFP-CRN7 WT (human Coronin7, full length, GFP on its N-terminus) (from UniProt P57737) CT-CRIB L>A; T>A; P>A (… > …); residue numbers not printed (P57737 whole entry, change not shown): as above

percent of input bound [1] | response [2] | response [3] | Substance
30 % of input | – | – | GFP-CRN7 WT (human Coronin7, full length, GFP on its N-terminus) (from UniProt P57737 1-925) (natural protein)
– | 57 % of input | 41 % of input | GFP-CRN7 WT (human Coronin7, full length, GFP on its N-terminus) (from UniProt P57737) CT-CRIB L>A; T>A; P>A (… > …); residue numbers not printed
– | 67 % of input | 32 % of input | GFP-CRN7 WT (human Coronin7, full length, GFP on its N-terminus) (from UniProt P57737) NT-CRIB S>A; P>A (… > …); residue numbers not printed

From article PMC4855144
